Reference: US7629437

Molecular target: T1, Ac-Leu-Thr-Phe-Lys-ACC
T1 chain: LTFK

B1: Cruzain (protein)
chain: APAAVDWRARGAVTAVKDQGQCGSCWAFSAIGNVECQWFLAGHPLTNLSEQMLVSCDKTDSGCSGGLMNNAFEWIVQENNGAVYTEDSYPYASGEGISPPCTTSGHTVGATITGHVELPQDEAQIAAWLAVNGPVAVAVDASSWMTYTGGVMTSCVSEQLDHGVLLVGYNDSAAVPYWIIKNSWTTQWGEEGYIRIAKGSNQCLVKEEASSAVVG
- cleavage products (HPLC and MALDI of the digest): Product fragments corresponding to cleavage between Thr-Phe were observed (data not shown)
